Laboratory results: PMC10683472, “Deep Learning-Driven Library Design for the De Novo Discovery of Bioactive Thiopeptides” (ACS Central Science, 2023)
Where no end group is shown, it is not given here.

Experiments:
IRAK4 = target: T1, IRAK4 (Homo sapiens, UniProt Q9NWZ3); assay: mRNA display affinity selection against IRAK4, NGS abundance; format: binding; parameters: acids 1-460; NP_057207.2) was purchased from Carna Biosciences; purchased Carna Biosciences (Kobe, Japan); details: Top100 selection hits, NGS
T1 sequence (Q9NWZ3 1-460): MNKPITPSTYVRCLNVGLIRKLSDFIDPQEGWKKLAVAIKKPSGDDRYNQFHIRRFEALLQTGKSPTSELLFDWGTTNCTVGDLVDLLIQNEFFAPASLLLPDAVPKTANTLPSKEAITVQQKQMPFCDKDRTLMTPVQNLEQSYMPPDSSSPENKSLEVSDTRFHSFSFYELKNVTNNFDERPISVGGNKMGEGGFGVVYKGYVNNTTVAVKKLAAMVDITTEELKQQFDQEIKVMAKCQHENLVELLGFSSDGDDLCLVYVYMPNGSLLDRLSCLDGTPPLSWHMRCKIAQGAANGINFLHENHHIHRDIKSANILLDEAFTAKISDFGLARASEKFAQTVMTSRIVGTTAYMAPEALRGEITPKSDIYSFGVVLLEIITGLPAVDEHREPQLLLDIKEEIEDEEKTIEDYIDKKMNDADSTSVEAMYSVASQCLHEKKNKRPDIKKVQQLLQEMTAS

TLR10 = target: T2, TLR10 (Homo sapiens, UniProt Q9BXR5); assay: mRNA display affinity selection against TLR10, NGS abundance; format: binding; parameters: Chimera protein (extracellular domain, amino acid 20-576;); Fc (chimera); purchased R&D system #6619-TR-050; details: Top100 selection hits, NGS
T2 sequence (Q9BXR5 20-576): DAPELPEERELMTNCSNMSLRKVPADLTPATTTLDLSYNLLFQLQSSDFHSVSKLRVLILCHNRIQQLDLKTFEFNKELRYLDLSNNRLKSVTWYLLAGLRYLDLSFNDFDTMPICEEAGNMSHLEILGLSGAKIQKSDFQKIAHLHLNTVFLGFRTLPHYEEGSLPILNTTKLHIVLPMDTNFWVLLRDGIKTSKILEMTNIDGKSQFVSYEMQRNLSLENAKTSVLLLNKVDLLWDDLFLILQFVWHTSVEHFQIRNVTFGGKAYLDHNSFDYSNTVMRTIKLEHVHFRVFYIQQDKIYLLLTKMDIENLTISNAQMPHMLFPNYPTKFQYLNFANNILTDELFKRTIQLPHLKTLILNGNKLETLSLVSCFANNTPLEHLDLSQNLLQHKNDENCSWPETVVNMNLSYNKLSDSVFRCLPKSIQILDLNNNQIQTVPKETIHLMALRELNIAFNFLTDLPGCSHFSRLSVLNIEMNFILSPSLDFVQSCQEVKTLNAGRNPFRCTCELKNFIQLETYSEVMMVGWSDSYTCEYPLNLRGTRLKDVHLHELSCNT

Sequence | Library fraction (TLR10; TLR10 selection pulldown (-)) | Raw reads (TLR10; TLR10 selection pulldown (-)) | Library fraction (TLR10; TLR10 selection pulldown (+)) | Raw reads (TLR10; TLR10 selection pulldown (+)) | further results
SIMWKRRVFK | – | – | – | – | Library fraction (IRAK4; IRAK4 selection pulldown (+)): 0.0001; Raw reads (IRAK4; IRAK4 selection pulldown (+)): 9; Library fraction (IRAK4; IRAK4 selection pulldown (-)): 8e-5; Raw reads (IRAK4; IRAK4 selection pulldown (-)): 11
STRWNNRIWR | – | – | – | – | Library fraction (IRAK4; IRAK4 selection pulldown (+)): 0.0001; Raw reads (IRAK4; IRAK4 selection pulldown (+)): 9
SILWKKHIYK | – | – | – | – | Library fraction (IRAK4; IRAK4 selection pulldown (+)): 0.0035; Raw reads (IRAK4; IRAK4 selection pulldown (+)): 369; Library fraction (IRAK4; IRAK4 selection pulldown (-)): 0.00093; Raw reads (IRAK4; IRAK4 selection pulldown (-)): 124
SLLWKQRVWK | – | – | – | – | Library fraction (IRAK4; IRAK4 selection pulldown (+)): 0.005; Raw reads (IRAK4; IRAK4 selection pulldown (+)): 525; Library fraction (IRAK4; IRAK4 selection pulldown (-)): 0.00324; Raw reads (IRAK4; IRAK4 selection pulldown (-)): 433
SQLYKRRIYQ | – | – | – | – | Library fraction (IRAK4; IRAK4 selection pulldown (+)): 0.0003; Raw reads (IRAK4; IRAK4 selection pulldown (+)): 37; Library fraction (IRAK4; IRAK4 selection pulldown (-)): 0.00027; Raw reads (IRAK4; IRAK4 selection pulldown (-)): 36
GPVIYNRRIYC | – | – | – | – | Library fraction (IRAK4; IRAK4 selection pulldown (+)): 0.0001; Raw reads (IRAK4; IRAK4 selection pulldown (+)): 11; Library fraction (IRAK4; IRAK4 selection pulldown (-)): 0.00021; Raw reads (IRAK4; IRAK4 selection pulldown (-)): 28
SMKRQFITRHWT | – | – | – | – | Library fraction (IRAK4; IRAK4 selection pulldown (-)): 7e-5; Raw reads (IRAK4; IRAK4 selection pulldown (-)): 9
TADGLILTPWVT | – | – | – | – | Library fraction (IRAK4; IRAK4 selection pulldown (+)): 0.0001; Raw reads (IRAK4; IRAK4 selection pulldown (+)): 15; Library fraction (IRAK4; IRAK4 selection pulldown (-)): 0.00281; Raw reads (IRAK4; IRAK4 selection pulldown (-)): 375
SLLWKRRVYT | – | – | – | – | Library fraction (IRAK4; IRAK4 selection pulldown (+)): 0.0002; Raw reads (IRAK4; IRAK4 selection pulldown (+)): 17; Library fraction (IRAK4; IRAK4 selection pulldown (-)): 0.0001; Raw reads (IRAK4; IRAK4 selection pulldown (-)): 14
SMERQFITWHWT | – | – | – | – | Library fraction (IRAK4; IRAK4 selection pulldown (-)): 0.00013; Raw reads (IRAK4; IRAK4 selection pulldown (-)): 17
RLCWKRRNWT | – | – | – | – | Library fraction (IRAK4; IRAK4 selection pulldown (+)): 0.0004; Raw reads (IRAK4; IRAK4 selection pulldown (+)): 47; Library fraction (IRAK4; IRAK4 selection pulldown (-)): 0.00044; Raw reads (IRAK4; IRAK4 selection pulldown (-)): 59
TMLWKRRIYR | – | – | – | – | Library fraction (IRAK4; IRAK4 selection pulldown (+)): 0.044; Raw reads (IRAK4; IRAK4 selection pulldown (+)): 4661; Library fraction (IRAK4; IRAK4 selection pulldown (-)): 0.029; Raw reads (IRAK4; IRAK4 selection pulldown (-)): 3881
TQRVRNRCYK | – | – | – | – | Library fraction (IRAK4; IRAK4 selection pulldown (+)): 0.013; Raw reads (IRAK4; IRAK4 selection pulldown (+)): 1424; Library fraction (IRAK4; IRAK4 selection pulldown (-)): 0.00437; Raw reads (IRAK4; IRAK4 selection pulldown (-)): 584
SQRYRNRNYQ | – | – | – | – | Library fraction (IRAK4; IRAK4 selection pulldown (+)): 0.0023; Raw reads (IRAK4; IRAK4 selection pulldown (+)): 242; Library fraction (IRAK4; IRAK4 selection pulldown (-)): 0.00064; Raw reads (IRAK4; IRAK4 selection pulldown (-)): 85
STYRKRRIWY | – | – | – | – | Library fraction (IRAK4; IRAK4 selection pulldown (+)): 0.0001; Raw reads (IRAK4; IRAK4 selection pulldown (+)): 14
GLLHGNVPTWI | 0.002 | 232 | – | – | –
MIRMDRLRVL | – | – | 0.00023 | 22 | –
MNPYSGNIVV | – | – | 0.00022 | 21 | –
TMLFRLQSKLAI | 0.013 | 1571 | – | – | –

Sequence | Library fraction (TLR10; TLR10 selection pulldown (-)) | Raw reads (TLR10; TLR10 selection pulldown (-)) | Library fraction (TLR10; TLR10 selection pulldown (+)) | Raw reads (TLR10; TLR10 selection pulldown (+)) | further results
TMQFPLQRRMAI | 0.002 | 241 | 0.00468 | 456 | –
SIMFALQQKLLF | 0.00189 | 226 | 0.004 | 389 | –
SQFNHAMGWYVN | 0.00131 | 156 | – | – | –
VQLHRWGLRM | – | – | 0.00032 | 31 | –
ALLIKQTNMLYC | 0.018 | 2188 | 0.023 | 2215 | –
SMLVWKGQSIRG | 0.002 | 248 | 0.004 | 408 | –
AIYYSRLNKVAF | – | – | 0.00018 | 18 | –
RIETRCYVLH | 0.0006 | 72 | – | – | –
LGNVYIRSS | – | – | 0.00075 | 73 | –
IGNTYVASS | – | – | 0.00022 | 21 | –
MMSRGMRWVL | – | – | 0.00019 | 19 | –
CITFQLTRKVAF (not fully specified) | 0.00554 | 661 | – | – | –
IGNVCVVSS | 0.004 | 475 | 0.007 | 660 | –
CVFFPHLNKIAL | 0.022 | 2623 | – | – | –
ALRFPHLGMMAF | – | – | 0.00026 | 25 | –
CVLVNNRYLVH | – | – | 0.00056 | 55 | –
TYWKACAMSHIP | 0.00056 | 67 | 0.00237 | 231 | –
IGRLFVKSS | 0.00284 | 339 | – | – | –
ALKFELLRKVAF | 0.00278 | 332 | – | – | –

Sequence | Library fraction (TLR10; TLR10 selection pulldown (-)) | Raw reads (TLR10; TLR10 selection pulldown (-)) | Library fraction (TLR10; TLR10 selection pulldown (+)) | Raw reads (TLR10; TLR10 selection pulldown (+)) | further results
VGRVYIKSS | 0.00364 | 434 | 0.00258 | 251 | –
SRTNRFGGHMAS | 0.008 | 995 | 0.168 | 16419 | –
GVRLNGVIFVSV | – | – | 0.00024 | 23 | –
TNPYGGNITM | 0.00949 | 1132 | 0.015 | 1427 | –
CMIFHTQLKIAF | 0.004 | 470 | 0.00053 | 52 | –
TIYFKLQKAVAL | – | – | 0.00055 | 54 | –
RMSLNTRYIAF | – | – | 0.00031 | 30 | –
IGRVCIRSS | 0.00147 | 175 | – | – | –
TCFSHYLIM | 0.002 | 237 | – | – | –
SVDFGQVVIH | 0.00054 | 65 | – | – | –
STIVFTFQCIKG | 0.008 | 919 | 0.012 | 1142 | –
ASFVIGQLLVN | 0.00055 | 66 | – | – | –
SITFPMQRHIAF | 0.00112 | 133 | – | – | –
TMMFPHQRKLAF | 0.009 | 1056 | – | – | –
GVGNRYGGHAGT | 0.0009 | 107 | – | – | –
TMFFRRQNAMAL | – | – | 0.00074 | 72 | –
SLEFPHLVIH | – | – | 0.00028 | 27 | –
CVHFCWQRKLAY | 0.00152 | 181 | – | – | –
IGLVRIKSS | 0.00155 | 185 | 0.0012 | 117 | –

More lines, main results first:

Library fraction (TLR10; TLR10 selection pulldown (-)) | Raw reads (TLR10; TLR10 selection pulldown (-)) | Library fraction (TLR10; TLR10 selection pulldown (+)) | Raw reads (TLR10; TLR10 selection pulldown (+)) | Sequence | further results
0.00222 | 265 | – | – | SLELKHIVFH | –
0.007 | 798 | – | – | SKIIWSNQAIRG | –
– | – | 0.00034 | 33 | SFMFFSQRKLAF | –
0.0006 | 71 | – | – | SFTFALQRRIAY | –
0.0008 | 96 | – | – | IGNVCIRSS | –
0.00658 | 785 | – | – | IGLVRVVSS | –
– | – | 0.00022 | 21 | TMHFSNQRKLVF | –
– | – | 0.0007 | 68 | FVLNGRYLVM | –
0.00283 | 338 | – | – | RILFARQNLAAF | –
0.00046 | 55 | – | – | SSTVWKLQTICG | –
0.00054 | 64 | – | – | TIELTHAYLH | –
– | – | 0.00022 | 21 | CLPFPLQMRIAY | –
0.00092 | 110 | – | – | IGKVYVHSS | –
– | – | 0.00047 | 46 | SPIHFRSVL | –
0.238 | 28345 | 0.143 | 13980 | TNPYGGNVGW | –
0.00141 | 168 | 0.00074 | 72 | RIETARLVIL | –
– | – | 0.00022 | 21 | SSYVYHKQRIRG | –
0.026 | 3115 | 0.00746 | 727 | SIWFPLQRKIAA | –
0.00044 | 52 | – | – | TLELKAIVFH | –
0.013 | 1556 | 0.008 | 804 | AINFELTNKIAF | –
– | – | 0.00046 | 45 | SIKFVFQGKLAI | –
0.00067 | 80 | – | – | ATIDLQLRRLTL | –
